According to PMC10308451:

Target: T1, EhDbr1 (RNA lariat debranching enzyme) (Entamoeba histolytica, UniProt C4M1P9 1-354)
T1 sequence: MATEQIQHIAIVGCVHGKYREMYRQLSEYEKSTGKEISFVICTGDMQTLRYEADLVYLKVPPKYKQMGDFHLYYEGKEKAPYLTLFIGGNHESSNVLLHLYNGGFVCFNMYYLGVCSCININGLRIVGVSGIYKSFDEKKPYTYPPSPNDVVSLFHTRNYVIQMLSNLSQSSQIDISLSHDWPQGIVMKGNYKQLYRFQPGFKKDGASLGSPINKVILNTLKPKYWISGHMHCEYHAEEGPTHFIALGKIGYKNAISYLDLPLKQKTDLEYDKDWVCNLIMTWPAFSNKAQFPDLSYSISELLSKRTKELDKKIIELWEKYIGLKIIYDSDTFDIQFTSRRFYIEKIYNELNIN
Experiment: X-ray crystallography

B1: PS-bRNA-1 5' product (hydrolyzed 2'-5' fragment, 5'-PS-GUGUG-3') (ssRNA)
RNA: GUGUG
modifications: 5'-terminal phosphorothioate
**Q.** Does B1 bind?
**A.** binds
